Biological target: S. pneumoniae RecA lacking the first 28 residues (Δ28), purified (S. pneumoniae) (UniProt P0A451)
Assay: SEC-MALS; purified Δ28RecA; details in Supplementary Results and Supplementary Figure S5

## S. pneumoniae RecA lacking the first 28 residues (Δ28), purified (from UniProt P0A451 29-388) (domain or fragment)
  stoichiometry N: 2

Source: paper PMC4066776
